Experimental findings from US20230218743A1 (IMMUNITYBIO, published 2023) are described below.

What is called Kd is the equilibrium constant for the complex coming apart. A low value points to higher affinity. A word on the koff: it is the first-order rate constant of dissociation. As a reminder, the kon is the second-order rate constant of association. The low end stands for slower complex formation, the high end for faster complex formation.

Experiment [1] deals with T1, RBD-SD1 (SARS-CoV-2, UniProt P0DTC2 319-591). Nature of the experiment: Octet, IgG1 on AHC biosensor. Background: In BLI a coated tip is dipped into the sample, and binding shifts an interference pattern.
The target of experiment [2] is T2, SARS-CoV-2 Spike receptor binding domain, wild-type (SARS-CoV-2, UniProt P0DTC2 319-541).
T2 construct: domain: RBD
Put plainly: Octet, IgG1 on AHC biosensor.

Experiment [3] has as its target SARS-CoV-2 Spike protein on live SARS-CoV-2 (SARS-CoV-2, UniProt P0DTC2 14-1273). Put plainly: cell-based or functional assay.
For experiment [4], the target named is T1, RBD-SD1.
Experiment [5] deals with T1, RBD-SD1. Nature of the experiment: epitope analysis, FIG. 4B.
Experiment [6] has as its target T1, RBD-SD1. The source holds these as a separate data set.
In experiment [7] the target is T1, RBD-SD1. The source holds these as a separate data set.

Where a chain is given by its changes, count along the chain named. Like-named read-outs stand apart in the source and are kept apart here.

B1: N-612-002 (antibody, V domains shown)
VH: EVQLVESGGGLVQPGGSLRLSCAASGFTFSSYTMHWVRQAPGKGLEWVSAISGSGGSTYYADSVKGRFTISRDNSKNTLYLQMNSLRAEDTAVYYCARDLFDFWGFDVWGQGTLVTVSS
VL: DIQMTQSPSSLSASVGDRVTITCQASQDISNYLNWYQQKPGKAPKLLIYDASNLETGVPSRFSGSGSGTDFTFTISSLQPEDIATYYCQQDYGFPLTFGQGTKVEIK
As to B1, the binding result in experiment [1] and in experiment [2] was “no binding (tested: 2x dilution series starting at 100 nM)” throughout.

B2: N-612-004 (antibody, V domains shown)
VH: EVQLVESGGGLVQPGGSLRLSCAASGFTFSSYYMHWVRQAPGKGLEWVSAISGSGGYTYYADSVKGRFTISRDNSKNTLYLQMNSLRAEDTAVYYCARDRDHAYDWGFDVWGQGTLVTVSS
VL: DIQMTQSPSSLSASVGDRVTITCQASQDISNYLNWYQQKPGKAPKLLIYDASNLETGVPSRFSGSGSGTDFTFTISSLQPEDIATYYCQQWADWPLTFGQGTKVEIK
As for B2, in experiment [3], the “live SARS-CoV-2 neutralization IC50” value was 0.194 µg/mL.

B3: 612-056 (scFv, V domains shown)
VH: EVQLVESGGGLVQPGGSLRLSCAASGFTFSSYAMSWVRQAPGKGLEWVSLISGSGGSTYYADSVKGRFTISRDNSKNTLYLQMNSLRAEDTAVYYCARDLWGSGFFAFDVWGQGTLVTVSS
VL: B2 VL with W91D, D93G, W94T
With B3, in experiment [4], the Kd came out at 4.77 nM.

B4: N-612-056 (antibody, V domains shown)
VH: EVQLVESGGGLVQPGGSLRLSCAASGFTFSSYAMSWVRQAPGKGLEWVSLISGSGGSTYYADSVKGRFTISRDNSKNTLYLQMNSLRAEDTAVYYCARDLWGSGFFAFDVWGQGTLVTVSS
VL: B2 VL with W91D, D93G, W94T
In the case of B4, the “live SARS-CoV-2 neutralization IC50” value in experiment [3] worked out at 0.855 µg/mL.

B5: N-612-014 (antibody, V domains shown)
VH: EVQLVESGGGLVQPGGSLRLSCAASGFTFSSYAMTWVRQAPGKGLEWVSYISGSGGGTYYADSVKGRFTISRDNSKNTLYLQMNSLRAEDTAVYYCARDRWASGWLAFDVWGQGTLVTVSS
VL: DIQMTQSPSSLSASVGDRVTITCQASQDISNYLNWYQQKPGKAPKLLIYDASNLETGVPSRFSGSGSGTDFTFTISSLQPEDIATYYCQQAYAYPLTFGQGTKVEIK
Take B5: the “live SARS-CoV-2 neutralization IC50” value in experiment [3] was 0.00791 µg/mL. The binding result in experiment [1] and in experiment [2] was “no binding (tested: 2x dilution series starting at 100 nM)” in each case.

B6: N-612-044 (antibody, V domains shown)
VH: EVQLVESGGGLVQPGGSLRLSCAASGFTFSNYAMHWVRQAPGKGLEWVSAISGSGGSTYYADSVKGRFTISRDNSKNTLYLQMNSLRAEDTAVYYCARDLSFWLTYHLASAFDVWGQGTLVTVSS
VL: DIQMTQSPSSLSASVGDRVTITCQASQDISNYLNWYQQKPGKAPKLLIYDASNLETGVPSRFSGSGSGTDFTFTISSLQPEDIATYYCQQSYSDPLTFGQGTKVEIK
Regarding B6, the binding result in experiment [1] and in experiment [2] was “no binding (tested: 2x dilution series starting at 100 nM)” in each case.

B7: N-612-007 (antibody, V domains shown)
VH: EVQLVESGGGLVQPGGSLRLSCAASGFTFSNYAMHWVRQAPGKGLEWVSAISGNGGSTGYADSVKGRFTISRDNSKNTLYLQMNSLRAEDTAVYYCARDRWYVKNAFDVWGQGTLVTVSS
VL: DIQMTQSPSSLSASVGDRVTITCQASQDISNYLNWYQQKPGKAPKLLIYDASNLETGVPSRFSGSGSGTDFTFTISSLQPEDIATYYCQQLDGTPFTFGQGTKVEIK
Take B7: in experiment [3], the “live SARS-CoV-2 neutralization IC50” value was found to be 0.0452 µg/mL. Moreover, the binding result in experiment [1] and in experiment [2] was “no binding (tested: 2x dilution series starting at 100 nM)” in each case.

B8: N-612-017 (antibody, V domains shown)
VH: EVQLVESGGGLVQPGGSLRLSCAASGFTFSSYAMHWVRQAPGKGLEWVSAIWGSGSNTYYADSVKGRFTISRDNSKNTLYLQMNSLRAEDTAVYYCARGRDLAAFTKTAFDVWGQGTLVTVSS
VL: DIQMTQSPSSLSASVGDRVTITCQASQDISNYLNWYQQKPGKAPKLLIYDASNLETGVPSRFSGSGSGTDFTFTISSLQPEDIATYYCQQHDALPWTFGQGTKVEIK
As to B8, the koff in experiment [5] is 0.0019 s⁻¹. Further, in experiment [3], the “live SARS-CoV-2 neutralization IC50” value was found to be 0.0756 µg/mL. In experiment [6], this molecule registered a Kd of 6.19 nM, a koff of 0.00627 s⁻¹ and an on-rate (kon) of 1.01e+06 M⁻¹ s⁻¹.

B9: 612-017 (scFv, V domains shown)
VH: B8 VH
VL: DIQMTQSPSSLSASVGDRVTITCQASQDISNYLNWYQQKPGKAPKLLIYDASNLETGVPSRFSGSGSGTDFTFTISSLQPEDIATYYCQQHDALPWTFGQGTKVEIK
Molecule B9 came in with a Kd in experiment [7] of 10.2 nM.
